This note sets out measurements from patent US20220235380.

The target in this data set is ALPG/P priming receptor encoded by the LG1 + FAS/PTPN2 shRNA circuits AB-1013, AB-1014 and AB-1015.
Chain of ALPG/P priming receptor encoded by the LG1 + FAS/PTPN2 shRNA circuits AB-1013, AB-1014 and AB-1015 (chain, as listed by the source): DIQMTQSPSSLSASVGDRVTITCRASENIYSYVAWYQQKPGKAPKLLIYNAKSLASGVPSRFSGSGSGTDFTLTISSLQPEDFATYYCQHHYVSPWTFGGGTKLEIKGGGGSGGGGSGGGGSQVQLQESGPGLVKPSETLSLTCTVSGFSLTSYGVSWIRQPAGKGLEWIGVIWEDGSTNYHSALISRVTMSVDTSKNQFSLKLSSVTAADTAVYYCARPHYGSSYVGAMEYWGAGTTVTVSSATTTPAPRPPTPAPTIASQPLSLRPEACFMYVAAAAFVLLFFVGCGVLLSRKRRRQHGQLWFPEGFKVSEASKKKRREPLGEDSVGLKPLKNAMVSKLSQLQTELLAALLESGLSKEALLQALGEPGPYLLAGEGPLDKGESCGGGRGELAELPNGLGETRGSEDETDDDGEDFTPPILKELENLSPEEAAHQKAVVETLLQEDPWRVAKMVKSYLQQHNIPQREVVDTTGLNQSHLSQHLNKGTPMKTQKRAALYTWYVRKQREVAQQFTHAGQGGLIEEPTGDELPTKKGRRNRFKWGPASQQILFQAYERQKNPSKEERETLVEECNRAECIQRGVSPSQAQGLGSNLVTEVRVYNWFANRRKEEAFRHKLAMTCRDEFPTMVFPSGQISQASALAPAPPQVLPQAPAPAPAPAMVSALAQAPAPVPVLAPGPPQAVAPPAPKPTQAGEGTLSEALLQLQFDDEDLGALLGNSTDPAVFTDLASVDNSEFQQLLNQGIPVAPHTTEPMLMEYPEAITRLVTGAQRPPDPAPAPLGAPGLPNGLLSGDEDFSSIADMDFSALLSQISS

B1: Alkaline Phosphatase, Germ Cell (ALPG), expressed on engineered K562 cells (protein)
chain: IIPVEEENPDFWNRQAAEALGAAKKLQPAQTAAKNLIIFLGDGMGVSTVTAARILKGQKKDKLGPETFLAMDRFPYVALSKTYSVDKHVPDSGATATAYLCGVKGNFQTIGLSAAARFNQCNTTRGNEVISVMNRAKKAGKSVGVVTTTRVQHASPAGAYAHTVNRNWYSDADVPASARQEGCQDIATQLISNMDIDVILGGGRKYMFPMGTPDPEYPDDYSQGGTRLDGKNLVQEWLAKHQGARYVWNRTELLQASLDPSVTHLMGLFEPGDMKYEIHRDSTLDPSLMEMTEAALLLLSRNPRGFFLFVEGGRIDHGHHESRAYRALTETIMFDDAIERAGQLTSEEDTLSLVTADHSHVFSFGGYPLRGSSIFGLAPGKARDRKAYTVLLYGNGPGYVLKDGARPDVTESESGSPEYRQQSAVPLDGETHAGEDVAVFARGPQAHLVHGVQEQTFIAHVMAFAACLEPYTACDLAPRAGTTD
On to B1, for which the “% CAR Conversion, time to peak” value is “reached a peak after around 100 hours of stimulation with the PrimeR antigen”.
